Target: GST-Ran Q69L, GTP-bound (UniProt Q9VZ23)
Test: pull-down; GST-Ran loaded with GDP or GST-Ran Q69L loaded with GTP γS, or GST alone, on beads incubated with TIM-V5 expressed in S2 cells, 4 h at 4°C; bound TIM-V5 detected with anti-V5

- ratio of binding, Ran GTP over Ran GDP: 1.64
Substance: V5-tagged wild-type TIM (TIMELESS) (from UniProt P49021 1-1398) (natural protein)
